Measured values: the supplement of paper PMC10567573

B1: EPB41L3 (parent)
chain: FRFAPNHTKELEDKVIELHKSHRG
B2: TRIM43 (parent)
chain: NRFRVEISFHFEVTNHNIRLFEDV

Variants of: B1
Experiment: protein stability index of a GFP-peptide fusion (GPS, HEK-293T) (PSI 1-6); higher = more stable
Settings: c terminus: a fixed tail appended
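Further: lentivirally expressed fusions sorted by FACS into six bins by GFP to DsRed ratio, PSI derived from sequencing read proportions per bin multiplied by bin number.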

Variant	protein stability index
FRFAPNHTKELEDKVIELHKSHFG	1.5
FRFAPNHTKELEDKVIELHKSHAG	2.07
FRFAPNHTKELEDKVIELHKSHMG	1.73
FRFAPNHTKELEDKVIELHKSHDG	2.84
FRFAPNHTKELEDKVIELHKSHKG	2.37
FRFAPNHTKELEDKVIELHKSHIG	1.72
FRFAPNHTKELEDKVIELHKSHWG	1.54
FRFAPNHTKELEDKVIELHKSHHG	1.92
FRFAPNHTKELEDKVIELHKSHNG	2
FRFAPNHTKELEDKVIELHKSHCG	2.4
FRFAPNHTKELEDKVIELHKSHVG	1.83
FRFAPNHTKELEDKVIELHKSHQG	2.87
FRFAPNHTKELEDKVIELHKSHTG	2.07
FRFAPNHTKELEDKVIELHKSHPG	1.93
FRFAPNHTKELEDKVIELHKSHGG	3.6
FRFAPNHTKELEDKVIELHKSHLG	1.92
FRFAPNHTKELEDKVIELHKSHSG	1.85
FRFAPNHTKELEDKVIELHKSHYG	2.78
FRFAPNHTKELEDKVIELHKSHEG	3.15
FRFAPNHTKELEDKVIELHKSHRK	2.06

Variant	protein stability index
FRFAPNHTKELEDKVIELHKSHRS	1.94
FRFAPNHTKELEDKVIELHKSHRC	1.36
FRFAPNHTKELEDKVIELHKSHRI	2.04
FRFAPNHTKELEDKVIELHKSHRY	1.56
FRFAPNHTKELEDKVIELHKSHRE	2.34
FRFAPNHTKELEDKVIELHKSHRP	2.19
FRFAPNHTKELEDKVIELHKSHRH	1.97
FRFAPNHTKELEDKVIELHKSHRW	1.84
FRFAPNHTKELEDKVIELHKSHRR	2.05
FRFAPNHTKELEDKVIELHKSHRL	2.02
FRFAPNHTKELEDKVIELHKSHRD	1.75
FRFAPNHTKELEDKVIELHKSHRV	1.74
FRFAPNHTKELEDKVIELHKSHRA	1.93
FRFAPNHTKELEDKVIELHKSHRN	2.45
FRFAPNHTKELEDKVIELHKSHRT	1.73
FRFAPNHTKELEDKVIELHKSHRQ	2.74
FRFAPNHTKELEDKVIELHKSHRF	2.31
FRFAPNHTKELEDKVIELHKSHRM	2.53
FRFAPNHTKELEDKVIELHKWHRG	1.41
FRFAPNHTKELEDKVIELHKVHRG	2.2

Variant	protein stability index
FRFAPNHTKELEDKVIELHKYHRG	2.4
FRFAPNHTKELEDKVIELHKSLRG	1.63
FRFAPNHTKELEDKVIELHKSKRG	1.4
FRFAPNHTKELEDKVIELHKSPRG	2.17
FRFAPNHTKELEDKVIELHKSVRG	1.67
FRFAPNHTKELEDKVIELHKSIRG	1.68
FRFAPNHTKELEDKVIELHKSFRG	1.92
FRFAPNHTKELEDKVIELHKSSRG	2.4
FRFAPNHTKELEDKVIELHKSNRG	2.34
FRFAPNHTKELEDKVIELHKSMRG	1.55
FRFAPNHTKELEDKVIELHKSERG	2.52
FRFAPNHTKELEDKVIELHKSRRG	1.68
FRFAPNHTKELEDKVIELHKSCRG	1.95
FRFAPNHTKELEDKVIELHKSARG	1.98
FRFAPNHTKELEDKVIELHKSTRG	1.76
FRFAPNHTKELEDKVIELHKSYRG	2.96
FRFAPNHTKELEDKVIELHKSWRG	1.65
FRFAPNHTKELEDKVIELHKSDRG	2.48
FRFAPNHTKELEDKVIELHKSGRG	1.91
FRFAPNHTKELEDKVIELHKSQRG	2.01

Variants of: B2
Experiment: as above
Settings: c terminus: a fixed tail appended

Variant	protein stability index
NRFRWEISFHFEVTNHNIRLFEDV	2.53
NRFRFEISFHFEVTNHNIRLFEDV	2.78
NRFRAEISFHFEVTNHNIRLFEDV	3.44
NRFRREISFHFEVTNHNIRLFEDV	1.5
NRFRKEISFHFEVTNHNIRLFEDV	3.27
NRFRNEISFHFEVTNHNIRLFEDV	2.11
NRFRQEISFHFEVTNHNIRLFEDV	1.79
NRFRSEISFHFEVTNHNIRLFEDV	2.08
NRFRGEISFHFEVTNHNIRLFEDV	2.86
NRFAVEISFHFEVTNHNIRLFEDV	3.36
NRFTVEISFHFEVTNHNIRLFEDV	2.08
NRFIVEISFHFEVTNHNIRLFEDV	3.43
NRFLVEISFHFEVTNHNIRLFEDV	2.88
NRFCVEISFHFEVTNHNIRLFEDV	2.91
NRFNVEISFHFEVTNHNIRLFEDV	2.75
NRFGVEISFHFEVTNHNIRLFEDV	3.21
NRFRVEISFHFEVTNHNIRLFEEV	2.56

Variant	protein stability index
NRFRVEISFHFEVTNHNIRLFEYV	2.39
NRFRVEISFHFEVTNHNIRLFEQV	2.92
NRFRVEISFHFEVTNHNIRLFEMV	2.12
NRFRVEISFHFEVTNHNIRLFENV	2.91
NRFRVEISFHFEVTNHNIRLFEFV	3.88
NRFRVEISFHFEVTNHNIRLFEKV	1.95
NRKRVEISFHFEVTNHNIRLFEDV	2.36
NRDRVEISFHFEVTNHNIRLFEDV	3.13
NRVRVEISFHFEVTNHNIRLFEDV	2.2
NRCRVEISFHFEVTNHNIRLFEDV	2.54
NRARVEISFHFEVTNHNIRLFEDV	3.07
NRFRVEISFHFEDTNHNIRLFEDV	1.93
NRFRVEISFHFEPTNHNIRLFEDV	4.3
NRFRVEISFHFEHTNHNIRLFEDV	2.26
NRFRVEISFHFEMTNHNIRLFEDV	2.35
NRFRVEISFHFEVTNHNIRLFEDL	1.95
NRFRVEISFHFEVTNHNIRLFEDH	4.23
